Positions of bridges follow the written chain, without caps; N, C: chain ends. No end group written: not given here.
Experiments:
Met = molecular target: T1, Met (Homo sapiens, UniProt P08581); assay: Met activation ability, SRE luciferase assay in HEK293E cells (HGF-Erk-SRE pathway); format: cell-based; conditions: for signal activation ability, dimer versus monomer: Example 43, FIG. 76
T1 construct: endogenous in cells; host or cells: HEK293E
Experimental: (§1) The Met activation ability of the HGF-PAS dimer peptide was evaluated by luciferase assay. To 25 μL of Opti-MEM medium (Thermo Fisher Scientific), 0.6 μL of Attractene Transfection Reagent (QIAGEN) was added, and the mixture was incubated at room temperature for 5 minutes. To the above mixed solution, a mixed solution of 25 μL of Opti-MEM and 1 μL of SRE reporter vector (QIAGEN) was added, and the mixture was incubated at room temperature for 20 minutes. This mixed solution was added to a 96-well plate, over which 40,000 cell/well HEK293E cells were seeded and incubated overnight in a 5% CO2 incubator at 37° C. After transfection, all culture supernatant was removed, 100 μL of Opti-MEM medium (evaluation basal medium) containing 0.5% FBS (Thermo Fisher Scientific), 1% non-essential amino acid solution (Thermo Fisher Scientific), and penicillin-streptomycin (Nacalai Tesque) was added, and incubation was performed at 37° C. for 4 hours, and thereby the cells were starved.
To the evaluation basal medium, 0 to 200 ng/mL HGF was added, or 0 to 800 ng/mL AET-PAS-aMD4dY-PEG11, AET-PAS-aMD4-PEG11, or AET-PAS-aMD4-PEG3 was added, or a culture supernatant containing PAS-aMD4dY-PEG11, PAS-aMD4-PEG11, or PAS-aMD4-PEG3 was added so as to be diluted 10-fold with respect to the medium, and the evaluation basal medium was added in an amount of 100 μL to the cells. The cells were stimulated by culturing overnight in a 5% CO2 incubator at 37° C.
The signal intensities were detected using Dual-Luciferase Reporter Assay System (Promega). The medium supernatant in an amount of 100 μL was removed, 50 μL of Glo reagent was added, and the cells were lysed for 10 minutes at room temperature. The luminescence of Firefly luciferase emitted from the cell lysate solution was detected with a plate reader to quantify the activation of the HGF-Erk-SRE pathway. Subsequently, 50 μL of Glo & Stop reagent solution was added, and after 10 minutes, the luminescence of the internal standard Renilla luciferase was detected to quantify the number of cells. The signal activity of each sample was quantified as SRE activity=(Firefly luciferase luminescence intensity)/(Renilla luciferase luminescence intensity). The relative signal activity values for the samples without addition of the evaluation compound were determined and used as relative receptor activity.
as §1, with “peptide linker variant” for “peptide”, “0.6 L” for “0.6 μL”
To the evaluation basal medium, 0 to 100 ng/mL HGF was added, or a culture supernatant containing AET-aMD4dY-PAS8, AET-aMD4dY-PAS22 (the same molecule as AET-PAS-aMD4dY-PEG11), AET-aMD4dY-PAS49, AET-aMD4dY-PAS100, AET-aMD4dY-PAS200, AET-aMD4dY-GS15, or AET-aMD4dY-GS22 was added to the medium so as to be diluted at a predetermined ratio, and the evaluation basal medium was added in an amount of 100 μL to the cells. The cells were stimulated by culturing overnight in a 5% CO2 incubator at 37° C.
The Met activation ability of the stabilized HGF-PAS dimer peptide was evaluated by luciferase assay. […]

HuCCT1 cells = assay: Tubular structure formation of HuCCT1 cells in collagen gel; format: cell-based; conditions: 40 ng/mL, day 7
Excerpt: It is known that HGF is allowed to act on HUVEC cells and HuCCT1 cells contained in collagen gel to form a tubular structure (K. Ito, et al. Nat. Commun. 6, 6373, 2015). It has also been reported that a Met full agonist having a function similar to that of HGF can form a tubular structure in the above cells, whereas a partial agonist having only a partial function cannot promote the formation of a tubular structure (W. Miao, et al. Int. J. Mol. Sci. 19, 3141, 2018). Therefore, it was decided to confirm whether the HGF-PAS dimer peptide was a full agonist or a partial agonist by using a tubular structure formation experiment using HuCCT1 cells.
To 8 equivalents of CellMatrix type IA (Nitta Gelatin), 1 equivalent of 10-fold concentrated D-MEM/F12 (Thermo Fisher Scientific) and 1 equivalent of reconstitution buffer (22 g/L sodium bicarbonate, 47.7 g/L HEPES, 0.05N sodium hydroxide aqueous solution) were mixed in order on ice. HuCCT1 cells were added at 25,000 cells per mL of the mixture and mixed on ice. To a 48-well cell culture plate, 400 μL of the above mixture was added, and the mixture was allowed to stand for 4 hours under the conditions of 37° C. and 5% CO2 for gelation. Onto the formed intracellular encapsulated collagen gel, 500 μL of RPMI 1640 medium containing 10% FBS was added. The cell-stimulating group was cultured by adding 35 ng/mL HGF or 40 ng/mL AET-PAS-aMD4dY-PEG11. […]

T1 sequence (P08581 25-1390): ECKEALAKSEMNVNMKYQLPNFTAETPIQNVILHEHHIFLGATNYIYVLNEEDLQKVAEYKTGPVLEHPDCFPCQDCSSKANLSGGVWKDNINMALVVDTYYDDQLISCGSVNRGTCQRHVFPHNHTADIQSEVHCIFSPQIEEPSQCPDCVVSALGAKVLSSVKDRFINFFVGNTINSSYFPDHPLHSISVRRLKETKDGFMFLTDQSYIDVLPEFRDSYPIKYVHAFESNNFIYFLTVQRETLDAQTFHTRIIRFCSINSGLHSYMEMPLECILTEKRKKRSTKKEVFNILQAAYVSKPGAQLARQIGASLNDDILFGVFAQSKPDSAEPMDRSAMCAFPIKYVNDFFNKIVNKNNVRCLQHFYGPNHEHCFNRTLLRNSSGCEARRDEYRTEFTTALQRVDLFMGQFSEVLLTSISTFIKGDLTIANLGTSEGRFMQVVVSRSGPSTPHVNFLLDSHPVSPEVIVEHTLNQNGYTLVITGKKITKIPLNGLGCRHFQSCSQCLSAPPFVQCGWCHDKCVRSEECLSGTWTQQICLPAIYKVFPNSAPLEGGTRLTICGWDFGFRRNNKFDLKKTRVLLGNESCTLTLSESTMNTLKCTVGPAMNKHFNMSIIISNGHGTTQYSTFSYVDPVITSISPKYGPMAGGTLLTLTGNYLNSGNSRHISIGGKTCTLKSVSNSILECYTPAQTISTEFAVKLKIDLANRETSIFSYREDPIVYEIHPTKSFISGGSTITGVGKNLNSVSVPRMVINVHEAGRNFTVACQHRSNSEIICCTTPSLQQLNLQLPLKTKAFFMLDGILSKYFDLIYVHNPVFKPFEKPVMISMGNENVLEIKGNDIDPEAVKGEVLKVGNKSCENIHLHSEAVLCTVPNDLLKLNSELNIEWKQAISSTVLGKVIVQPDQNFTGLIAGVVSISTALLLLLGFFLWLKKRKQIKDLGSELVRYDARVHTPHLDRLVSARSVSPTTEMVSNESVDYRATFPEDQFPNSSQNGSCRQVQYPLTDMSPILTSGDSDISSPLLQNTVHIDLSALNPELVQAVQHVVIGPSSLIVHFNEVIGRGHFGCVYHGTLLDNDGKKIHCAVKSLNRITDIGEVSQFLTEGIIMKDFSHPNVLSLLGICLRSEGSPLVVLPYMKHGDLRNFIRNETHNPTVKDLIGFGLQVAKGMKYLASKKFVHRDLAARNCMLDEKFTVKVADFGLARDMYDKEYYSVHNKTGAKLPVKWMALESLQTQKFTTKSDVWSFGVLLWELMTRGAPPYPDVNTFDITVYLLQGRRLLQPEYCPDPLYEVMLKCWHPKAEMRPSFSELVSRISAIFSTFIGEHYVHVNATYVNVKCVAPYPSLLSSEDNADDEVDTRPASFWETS

| Substance | maximum activity compared with HGF (Met; Example 6, AET form 0 to 800 ng/mL, PAS form culture supernatant diluted 10-fold) | signal activation ability, dimer versus monomer (Met) | agonist type (full or partial) for Met (HuCCT1 cells) |
| --- | --- | --- | --- |
| AETCRQFNRRTHEVWNLDCGAAPAAPAPAAPAAPAPAAPAAPGCRQFNRRTHEVWNLDC (disulfide 4-19, 44-59; also: PEG11) [AET-PAS-aMD4dY-PEG11] | comparable to 100 ng/mL HGF | showed signal activation ability | full agonist for Met |
| HGF: recombinant human HGF (rhHGF, R&D Systems) | – | showed signal activation ability | – |

Reference: patent publication US20220396819A1, “METHOD FOR PRODUCING PEPTIDE HAVING PHYSIOLOGICAL ACTIVITY, AND PEPTIDE COMPRISING SHORT LINKER” (priority 2019, published 2022)
